Key:
[1] = target: T1, hen egg white lysozyme (Gallus gallus (hen egg white), UniProt P00698); assay: ITC; Malvern PEAQ-ITC; 20 °C; PBS pH 7.4 with 0.005% tween 20; lysozyme in the cell and nanobody titrated (so in the source); nanobody 20 or 30 µM, lysozyme 200 or 300 µM; single site model; details: both partners purified
T1 construct: hen egg white lysozyme (HEWL), 14.5 kDa, monomeric; The source is named for ITC (Roche powder); also called HEWL; source: bought: Roche (HEWL lysozyme powder, > 95%)
T1 sequence (P00698 19-147): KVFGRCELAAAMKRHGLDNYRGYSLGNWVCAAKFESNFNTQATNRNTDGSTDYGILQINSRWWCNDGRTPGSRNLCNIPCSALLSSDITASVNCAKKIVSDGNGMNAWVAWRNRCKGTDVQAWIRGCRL

[2] = target: T1, hen egg white lysozyme; assay: SPR; Biacore T200; lysozyme amine-coupled (EDC/NHS) to a CM5 chip, max 100 units; nanobody as analyte, multi-cycle kinetics; PBS with 0.01% tween20; 20 °C (row labels of Table 1); Langmuir 1:1 model; details: both partners purified
[3] = target: T1, hen egg white lysozyme; assay: ITC; Malvern PEAQ-ITC; 37 °C; PBS pH 7.4 with 0.005% tween 20; lysozyme in the cell and nanobody titrated (so in the source); single site model; details: both partners purified
[4] = target: H04 nanobody; assay: SEC-MALS; Superdex-75 10/300, 0.75 ml/min, PBS pH 7.4; Wyatt Helios 18-angle photometer, QELS, Optilab TrEX
[5] = target: T1, hen egg white lysozyme; assay: SPR; Biacore T200; lysozyme amine-coupled (EDC/NHS) to a CM5 chip, max 100 units; nanobody as analyte, multi-cycle kinetics; PBS with 0.01% tween20; 20 °C (row labels of Table 1); Langmuir 1:1 model; details: both partners purified; remark: listed apart in the source

B1: Phage-B09 nanobody (VHH)
VHH: EVQLQASGGGFVQPGGSLRLSCAASGSTYRRSTMGWFRQAPGKEREFVSAISSDHSHPDYYADSVKGRFTISRDNSKNTVYLQMNSLRAEDTATYYCAFQYDSDKKSYWGQGTQVTVSS
notes: selected by phage display from the NaLi-H1 synthetic library (Hybrigenics); also called P-B09; source: E. coli T7-Express, purified (IMAC, Superdex-75)
Kd [1]: 1430 nM | dH [1]: -14.5 kcal/mol | Kd [2]: 1300 nM | koff [2]: 0.6 s⁻¹ | kon [2]: 450000 M⁻¹ s⁻¹

B2: Cab-Lys3 nanobody (VHH)
VHH: DVQLQASGGGSVQAGGSLRLSCAASGYTIGPYCMGWFRQAPGKEREGVAAINMGGGITYYADSVKGRFTISQDNAKNTVYLLMNSLEPEDTAIYYCAADSTIYASYYECGHGLSTGGYGYDSWGQGTQVTVSS
notes: crystal structure PDB 1XFP named for it (Muyldermans and Lauwereys 1999); CDR3 of 24 residues with an extra disulphide between CDR1 and CDR3; also called WT Cab-Lys3; source: E. coli T7-Express, purified (IMAC, Superdex-75)
Kd [1]: 27 nM | dH [1]: 1.6 kcal/mol | Kd [3]: 5 nM | dH [3]: -4.02 kcal/mol | Kd [2]: 5 nM | koff [2]: 0.0009 s⁻¹ | kon [2]: 41000 M⁻¹ s⁻¹

B3: Cab-Lys3 S105N nanobody (VHH)
VHH: DVQLQASGGGSVQAGGSLRLSCAASGYTIGPYCMGWFRQAPGKEREGVAAINMGGGITYYADSVKGRFTISQDNAKNTVYLLMNSLEPEDTAIYYCAADSTIYANYYECGHGLSTGGYGYDSWGQGTQVTVSS
notes: as the chain of m6 (Cab-Lys3) with S105N in CDR3; source: E. coli T7-Express, purified (IMAC, Superdex-75)
Kd [1]: 125 nM | dH [1]: 2.6 kcal/mol | Kd [3]: 73 nM | dH [3]: -3.3 kcal/mol | Kd [2]: 35 nM | koff [2]: 0.0028 s⁻¹ | kon [2]: 79000 M⁻¹ s⁻¹

B4: Cab-Lys3 T101S nanobody (VHH)
VHH: DVQLQASGGGSVQAGGSLRLSCAASGYTIGPYCMGWFRQAPGKEREGVAAINMGGGITYYADSVKGRFTISQDNAKNTVYLLMNSLEPEDTAIYYCAADSSIYASYYECGHGLSTGGYGYDSWGQGTQVTVSS
notes: as the chain of m6 (Cab-Lys3) with T101S in CDR3; source: E. coli T7-Express, purified (IMAC, Superdex-75)
Kd [1]: 113 nM | dH [1]: 3 kcal/mol | Kd [3]: 105 nM | dH [3]: -5.1 kcal/mol | Kd [2]: 135 nM | koff [2]: 0.029 s⁻¹ | kon [2]: 160000 M⁻¹ s⁻¹

B5: H04 nanobody (VHH)
VHH: EVQLLESGGGLVQPGGSLRLSCAASGFRFDAEDMGWVRQAPGKGLEWVSSIYGPSGSTYYADSVKGRFTISRDNSKNTLYLQMNSLRAEDTAVYYCAKYTSPPQNHGFDYWGQGTLVTVSS
notes: crystal structure with lysozyme PDB 4U3X (Rouet et al. 2015); CDR3 of 12 residues; Developed in Daniel Christ's group (Rouet et al. 2015); source: E. coli T7-Express, purified (IMAC, Superdex-75)
Kd [1]: 24 nM | dH [1]: -17.6 kcal/mol | Kd [2]: 19 nM | koff [2]: 0.0008 s⁻¹ | kon [2]: 43000 M⁻¹ s⁻¹ | stoichiometry N [4]: 2

B6: H04 H106A nanobody (VHH)
VHH: EVQLLESGGGLVQPGGSLRLSCAASGFRFDAEDMGWVRQAPGKGLEWVSSIYGPSGSTYYADSVKGRFTISRDNSKNTLYLQMNSLRAEDTAVYYCAKYTSPPQNAGFDYWGQGTLVTVSS
notes: as the chain of m2 (H04) with H106A in CDR3; source: E. coli T7-Express, purified (IMAC, Superdex-75)
Kd [1]: 296 nM | dH [1]: -17 kcal/mol | Kd [2]: 124 nM | koff [2]: 0.056 s⁻¹ | kon [2]: 450000 M⁻¹ s⁻¹ | Kd [5]: ~250 nM

B7: Phage-F07 nanobody (VHH)
VHH: EVQLQASGGGFVQPGGSLRLSCAASGTSSDLYDMGWFRQAPGKEREFVSAISGDDTQYTYYADSVKGRFTISRDNSKNTVYLQMNSLRAEDTATYYCAPRAHEPHGHWNYYWGQGTQVTVSS
notes: selected by phage display from the NaLi-H1 synthetic library (Hybrigenics); also called P-F07; source: E. coli T7-Express, purified (IMAC, Superdex-75)
Kd [1]: 685 nM | dH [1]: -23.5 kcal/mol
